System: MS2 coat protein
Test: apparent KD of MS2 coat protein; designed switch direction (-1 OFF switch, 1 ON switch): -1; higher = weaker reporter binding
Summary of the method: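 Apparent KD, taken as the median over clusters for each design, was obtained by curve-fitting normalised cluster fluorescence. Designed RNA switches had been transcribed on Illumina chips by stalled E. coli RNA polymerase and titrated with SNAP-549-labelled MS2 coat protein, doubling from 0.7 or 1.5 nM to 3 µM.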

[1] = Eterna round: R95, input ligand: FMN 200 uM
[2] = Eterna round: R95, input ligand: microRNA oligo, concentration not stated
[3] = Eterna round: R95, input ligand: none
[4] = input ligand: microRNA oligo, concentration not stated

Sequence	apparent KD of MS2 coat protein [1] [nM]	apparent KD of MS2 coat protein [2] [nM]	apparent KD of MS2 coat protein [3] [nM]	apparent KD of MS2 coat protein (input ligand: FMN 200 uM) [nM]	apparent KD of MS2 coat protein (input ligand: none) [nM]	apparent KD of MS2 coat protein [4] [nM]
UUUUACAAGCCAGAUCCUCACAUGAGGAUCACCCAUGUGCUCGUCUGUUUUUGUACUAUCACGUUUGUGAUAGUGUU [Level Boss var2-09] (puzzle: Sensor v3, turn-off variant 1)	189	14.6	189			
GCUCGCUGAGGAUAUACUAAAACACGCUCUGGGAGGUCUUGACUUGAGGAUCACCCAAGUAGAAGGCAGUUAAA [Zaesleeran] (Eterna round: R97, puzzle: Exclusion 2)				437	450	
UUGCAGUCGUCAGGAUAUAGUAUUACGGCCUUUCAUUUCUUCAUACAUGAGGAUCACCCAUGUCGCUAGAAGGGCUUCUCGCUU [salish99_ExNG2_r04_109] (Eterna round: R96, puzzle: Exclusion NG 2)				15.3	17.6	14.6
CAGCUGAAAGUCAGGAUAUCUAGAGCUUCGGCUCUAGAGAAGGGACAUGAGGAUCACCCAUGUGAUCACAGCUG [BmEx4/4-A1] (Eterna round: R97, puzzle: Brourd's mod of Exclusion 4)				152	1900	
AAUAACAAGUAAGAUCCUAACAUGAGGAUCACCCAUGUGCUCGUCUUAUAAAGUACUAUCACGAAAGUGAUAGUACA [Sensor 3, v1 - 46] (puzzle: Sensor v3, turn-off variant 1)	36.5	153	43.1			
CUGAACCCGGUAGGAUAUAUUGUGGGCGGGCGUGGAACGACAUGAGGAUCACCCAUGUAAUUGAGGUAGAAGGGCCGAGAGGUU [Excl-NG2-LRO16] (Eterna round: R96, puzzle: Exclusion NG 2)				38.5	43.8	30.4
CUUAGACAUGAGGAUCACCCAUGUGAGGAUAUGAUGCGAAUAAAGAAAGAAGAAAGCAUCAGAAGGCACAUAUG (Eterna round: R96, puzzle: Exclusion 1)				382	125	94.1
UAUUAGCAAGCAAGAUCCCACAUGAGGAUCACCCAUGUGCUCGUCGCAUCCAGAAUUACUGGGUGCGCUCGUCUUAU [Winner reversed engineered 16] (Eterna round: R97, puzzle: Sensor, turn-off variant 1)				168	169	
AGUACUAACACGGAAGUGUUAGUACAAUAAGCUUGUGAAACAUGAGGAUCACCCAUGUCCUCAUAAGCUCGUCUUAU [salish99_TOv2_r3_026] (puzzle: Sensor v3, turn-off variant 2)	11.1	315	18.1			
AGUAGUAGUAUCCGAUCCUACAUGAGGAUCACCCAUGUAGCUAGACGUGCACGCGAUGCUCGUCAGACUACCGGAUG [salish99_TOv1_r3_041] (puzzle: Sensor v3, turn-off variant 1)	23.7	23	29.6			
GAUACACAUGAGGAUCACCCAUGUGAGGAUAUGCGUACGUUGUCCGUAGGCGACGUGCGCAGAAGGCGCAAAGG [Mat - Mod of JL D97] (puzzle: Exclusion 1)	85.1	41.3	86			
AUCCUACAUGAGGAUCACCCAUGUCAGGAUAUCCAAGAAAUCUGGCCGUAUCGGCCAGGGAGAAGGGACAUGGC [jl-ex1-4.66 ViennaUCT mod] (Eterna round: R97, puzzle: Exclusion 1)				85.6	28.4	
AGUACAAUCACGAAAGUGAUUGUACAAUAAGCUUGUGAAACAUGAGGAUCACCCAUGUCCUCAUAAGCUCGUCUUAU [Mat - Sensor v2 -ver2- JL mod - D69] (Eterna round: R96, puzzle: Sensor v2, turn-off variant 2)				16.1	18.4	416
ACAUGAGGAUCACCCAUGUGCACGUAAUGGCUCAUGUAGAGUCAGGAUAUGCGUGGCGAACUCGCGCAGAAGGGACAAGACUGG [Deportation 20 - Jieux - Exclusion NG 3] (Eterna round: R96, puzzle: Exclusion NG 3)				23.5	34.6	25.6
AUCGUGUCAGGAUAUUGAAGUUCCGGGCAGUCCACGGAGCUCGAGAAGGGACAUGAGGAUCACCCAUGUCUCAU [Eternabot (L1) Solution 84] (Eterna round: R97, puzzle: Exclusion 4)				21.4	18.6	
CCGGAAAUAGAGGAUAUAGGACUGGAUACAGUCCUAGAAGGCUAUACAUGAGGAUCACCCAUGUGUCCUACCGG [Fiskers Ex 6 - 63] (puzzle: Exclusion 6)		14.1				
AGAAGUGCCGAGGAUAUCCAGGCAAUCUCGUUCGGAGAAGGCGGCACUUGAGGAUCACCCAAGUGCUCCUAAGA [Islariat] (Eterna round: R97, puzzle: Exclusion 6)				52.1	14.1	
CAUACUGAAGUUAGGAUAUUCGAACGUAUACGGAUGGAGAAGGGACAUGAGGAUCACCCAUGUAGAUAGUAAAG [EX-4 Malc #11] (puzzle: Brourd's mod of Exclusion 4)	23.1	21.5	23.1			
UAAUAUAAGCAAAGAUCCUACAUGAGGAUCACCCAUGUGCUCGUCUUAUAAAGUACUAUCACGAAAGUGAUAGUACA [Mat - Sensor v3 - turn-off var 1 - Eli Mod - D81] (puzzle: Sensor v3, turn-off variant 1)	116	19.8	170			
UUUAUAUAUGAAGGAUAUACUUAACAUGAGGAUCACCCAUGUGGUGUUGUGAGUGAGUGAGUUUAGUAGAAGGUCAAUUAUUUU [JMF's solution 27] (Eterna round: R96, puzzle: Exclusion NG 2)				594	310	237
CGCUGGACAGGAUAUGUUCUUGGGCACUUGAGGAUCACCCAAGUCAUCAAGAAAACAGGCACAGAAGGGUUUAUGG [salish99_ex5_r4_020] (Eterna round: R97, puzzle: Exclusion 5)				32.1	24.1	
UAAAAGCUAGGAUAUACUGGCACACAACUCAUAAAUUCAAGACAUGAGGAUCACCCAUGUAGAAGGAGCAAAUA [EX2 A.3] (Eterna round: R97, puzzle: Exclusion 2)				63.5	23.6	
GGUACUCAAAGAGUACCAAUACGAACAUGAGGAUCACCCAUGUAGGAUAUGCUACUCAAAGAGUAGCAGAAGGACGUGUGCCUU [Far Half Aptamer v4] (Eterna round: R96, puzzle: Exclusion NG 3)						15.6
CCCAGUUAUCAAGGAUAUUGUACAUGAGGAUCACCCAUGUAAUAAAUGAGGAUUUCGGGUGUCUACAAGAAGGUGAGGAUAGGC [Ostracism 15 - Jieux - Exclusion NG 2] (Eterna round: R96, puzzle: Exclusion NG 2)				26.6	46.4	22.4
CAGACACAUGAGGAUCACCCAUGUGAGGAUAUGCGUACGUUGUCCGUAGGCGACGUGCGCAGAAGGCGCAAAGG [JL-ex1-3.10 Eli mod] (puzzle: Exclusion 1)	65.7	67	79.4			
GGAAUACAUGAGGAUCACCCAUGUAAGGAUAUGCUGAAUAACACGGAAUUAACGUGCAGCAGAAGGUACAAAGG [Mat - Mod of my Eli Mod D43] (puzzle: Exclusion 1)	62.8	63.3	113			
UUGGUGUCAGGAUAUGCACAGGUCGCACAAAUUGCAGCCUAGCAGAAGGGACAUGAGGAUCACCCAUGUACUCU [EX4 B.21] (Eterna round: R97, puzzle: Exclusion 4)				30	18.8	
CUGGUCCGAGGAUAUAUUAUGUGAUACAUGAGGAUCACCCAUGUUAUAUGAUGGAUGUAAAUAGAAGGCGGACUAG [JL-ex5-3.15] (puzzle: Exclusion 5)	48	43.4	58.5			
AUAUAGCGAGGAUAUACAUGAGGAUCACCCAUGUAAUAAAUAUAUAUAUUUAUAUUAUGUAGAAGGCGCUAUAU [-18.5, -17.2 kcal, 39% A] (Eterna round: R97, puzzle: Exclusion 3)				30.3	14.5	

Source: the supplement of paper PMC9170038
